Source: PMC10679507

Columns and labels:
Experiment in all cases: UV-vis
Settings in all cases: room temperature; 0.4 M NaCl; 6-mix buffer (citric acid 5.48 mM; ADA 1.84 mM; MOPS 4.16 mM; TAPS 5.00 mM; CHES 3.24 mM; CAPS 5.56 mM); dark (unphotolyzed) state, lipid-reconstituted
Asp250 = Asp250 (UniProt position 250, TYTIADVSSKV)
Glu10 = Glu10 (UniProt position 10, GNATFENYIGL)
Asp115 = Asp115 (UniProt position 115, LNWLIDVPMLL)

Sodium pump rhodopsin IaNaR E159Q (Indibacter alkaliphilus; E159Q)
pKa (Asp250): 3.1
pKa (Glu10): 3.7

Sodium pump rhodopsin IaNaR (Indibacter alkaliphilus)
pKa (Asp250): 3.2
pKa (Asp115): 5.5
pKa (Glu10): 4.1

Sodium pump rhodopsin IaNaR D115N (Indibacter alkaliphilus; D115N)
pKa (Asp250): 2.5
pKa (Glu10): 4.6

Sodium pump rhodopsin IaNaR D250N (Indibacter alkaliphilus; D250N)
pKa (Asp115): 5.0
pKa (Glu10): 2.8

Sodium pump rhodopsin IaNaR E10Q/E159Q/R242Q (Indibacter alkaliphilus; E10Q;E159Q;R242Q)
pKa (Asp250): 3.6
pKa (Asp115): 7.1

Sodium pump rhodopsin IaNaR H225A (Indibacter alkaliphilus; H225A)
pKa (Asp250): 3.0
pKa (Asp115): 5.8
pKa (Glu10): 4.3

Sodium pump rhodopsin IaNaR R242Q (Indibacter alkaliphilus; R242Q)
pKa (Asp115): 6.4
pKa (Glu10): 4.4

Sodium pump rhodopsin IaNaR E10Q/R242Q (Indibacter alkaliphilus; E10Q;R242Q)
pKa (Asp250): 3.8
pKa (Asp115): 5.7

Sodium pump rhodopsin IaNaR E159A (Indibacter alkaliphilus; E159A)
pKa (Asp250): 3.3
pKa (Asp115): 5.6
